# Assay results: article doi:10.1101/2024.10.05.616753
# T1: recombinant human C-reactive protein (human), P02741
# T1 chain: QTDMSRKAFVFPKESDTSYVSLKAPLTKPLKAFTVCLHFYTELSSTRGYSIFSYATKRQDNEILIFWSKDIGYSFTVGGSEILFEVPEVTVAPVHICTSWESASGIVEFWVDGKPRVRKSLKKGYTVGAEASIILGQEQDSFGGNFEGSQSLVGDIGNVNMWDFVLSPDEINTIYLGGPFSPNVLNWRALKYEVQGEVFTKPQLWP
# Molecular target: T1, recombinant human C-reactive protein …
# Assay: cryo-EM structure
# Conditions: remark: other sources report otherwise
binder,measurement,value
"recombinant human C-reactive protein, P02741-1 19-224 (natural protein) QTDMSRKAFVFPKESDTSYVSLKAPLTKPLKAFTVCLHFYTELSSTRGYSIFSYATKRQDNEILIFWSKDIGYSFTVGGSEILFEVPEVTVAPVHICTSWESASGIVEFWVDGKPRVRKSLKKGYTVGAEASIILGQEQDSFGGNFEGSQSLVGDIGNVNMWDFVLSPDEINTIYLGGPFSPNVLNWRALKYEVQGEVFTKPQLWP",stoichiometry N,5
